Target: Recombinant CHIKV E2 ectodomain protein (corresponding to the CHIKV-LR2006 strain) (Chikungunya virus strain LR2006)
Test: ELISA on coated E2 ectodomain

OD450: < 0.1 od
Substance: murine CHK-152 (antibody)

Reference: patent US20200277359A1
